{"source": "paper PMC5929487", "key": {"[1]": {"target": "recombinant human catalase (human) (UniProt P04040)", "assay": "SEC"}, "[2]": {"target": "recombinant human catalase (human) (UniProt P04040)", "assay": "native gel or EMSA"}, "[3]": {"target": "epidermal growth factor receptor (ovine pulmonary artery smooth muscle cells) (ovine (endogenous in PASMC))", "assay": "SDS-PAGE and Western blot of SDS-resistant dimer"}, "[4]": {"target": "epidermal growth factor receptor (rat lung) (rat (endogenous in lung tissue))", "assay": "SDS-PAGE and Western blot of SDS-resistant dimer"}}, "note": "“And” between values parts separate entries of the source, which are not always exact repeats. Equal values may be shown once."}
{"substance": "recombinant human catalase (from UniProt P04040 1-527) (enzyme)", "values": [{"measurement": "stoichiometry N", "setting": "[1]", "value": "4 and 3 and 2"}, {"measurement": "stoichiometry N", "setting": "[2]", "value": 4}]}
{"substance": "epidermal growth factor receptor (ovine pulmonary artery smooth muscle cells)", "values": [{"measurement": "stoichiometry N", "setting": "[3]", "value": 2}]}
{"substance": "epidermal growth factor receptor (rat lung)", "values": [{"measurement": "stoichiometry N", "setting": "[4]", "value": 2}]}
